Experimental data taken from US20250084127.
Numbering of substitutions follows the chain as printed. Numbers in names are those of the source.

How the values were obtained:
[1] = molecular target: tyrocidine A precursor having EG as a leaving group
[2] = molecular target: peptide having a polyethylene glycol (PEG) chain therein (EG at the C terminal)
[3] = molecular target: T1, crude peptide 1 (EG-surugamide B precursor) (not fully specified)
T1 chain: IAIVKIFL

[4] = molecular target: seco-desprenylagaramide C-EG

B1: recombinant TycC-TE (protein)
chain: MGSSHHHHHHSSGLVPRGSHMGGSHKRFESRYGTAILLNQETARNVFCFTPIGAQSVYYQKLAAEIQGVSLYSFDFIQDDNRMEQYIAAITAIDPSGPYTLMGYSSGGNLAFEVAKELEERGYGVTDIILFDSYWKDKAIERTVAETENDIAQLFAEIGENTEMFNMTQEDFQLYAANEFVKQSFVRKTVSYVMFHNNLVNTGMTTAAIHLIQSELEADEEAPVAAKWNESAWANATQRLLTYSGHGIHSRMLAGDYASQNASILQNILQELFILKGSRSHHHHHH
[1]
  peptide cyclization (LC-MS of the reaction product): In an active TycC-TE containing system, it was confirmed that a cyclic peptide, i.e., tyrocidine A, and a small amount of substrate hydrolysate were generated

B2: recombinant WolJ (protein)
chain: MNHKVHHHHHHMSAEAKGRGTTISLPLDRLAKEHSVVGGQLAVHHQGTTHTWAFGEEEHDSGRPVSVGTAFALGSTTKALTATSVLQLVSDGDLDLDSPVKTWIEERGAAADHPALNATLRQLLSHTAGLPSDHFDEEAPSLRRWLAGFLTSGDERARASWPTPGSFSYSNIGYAVAGRAVEAATGLPWWQAVRDYLLTPLGTGIGLLPGAPQDGRPLTAAPGHTAHTTPDGRTVVHVVQSTTDAGSAPSGGLAGSAADLVRFARLHLEEPGDLDRSAVADPSVLREMAQPVTGAEPFGLADGWGLGLGHFGPAGRHWLGHDGTLDGSTCHLRIEPRQGTVVALTTNTSSGLALWDSVVEELRECGLDIGLHAPQPPLAAPAATFAECTGTYRNGDLAVTVGIEDQHIVLGLPNGQRDSVAPHTGLFFSGRPGNASLFLGRFVKDVATGEIRALQYSGRTLTREALTARN
seco-wollamide B1-EG
  peptide cyclization (LC-MS of the reaction mixture): the substrate disappeared by an enzymatic reaction to generate a cyclized product (wollamide B1)

B3: recombinant SurE (protein)
chain: MGSSHHHHHHSSGLVPRGSHMGAEGAERDAVGALFEELVREHRVTGAQLSVYRDGALSEYATGLASVRTGEPVTPRTGFPFGSVTKFLTAELVMQFVCDGDLDLDDPLAGLLPDLGRAAGPPLGTATVRQLLSHTAGVVDSIEYDEMRGPSYRRFAAACARQPALFPPGLAFSYSNTGYCLLGAVIEAASGMDWWTAMDSCLLRPLGIEPAFLHDPRPGQGGAARPVAEGHALRAGGERAEHVDHMASLSLAAAGGLVGSATDLVTAARPHLADRKTFAQHDLLPEDAVLAMRTCVPDAEPFGLADGWGLGLMRHGTGDGAWYGHDGAVGGASCNLRIHPDRSLALALTANSTAGPKLWEALVARLPEAGLDVGHYALPVPDSAPLAPDAGHLGTYANGDLELMVTHDAAGDLFLTRESYSDYRLSLHEDDLFVARSGEPGALPITGRFVREHPAGPVALLQYGGRAMHRL
[2]
  peptide cyclization (reverse-phase HPLC / LC-MS): SurE efficiently circularized also a peptide having a PEG chain therein
[3]
  peptide cyclization (LC-MS of the reaction mixture): a substrate (crude peptide 1, EG-SB precursor, m/z 960.5 [+H]) disappeared by the action of SurE to generate a cyclic peptide (surugamide B (SB), m/z 898.5 [+H])

B4: SurE (G235L) (protein)
chain: B3 chain with G255L
[4]
  peptide cyclization (LC-MS of the reaction mixture): the substrate disappeared by an enzymatic reaction to generate a cyclized product (desprenylagaramide C)
